Assay results reported in the supplement of paper PMC10065799, “High-throughput profiling of sequence recognition by tyrosine kinases and SH2 domains using bacterial peptide display” (eLife, 2023).

How the values were obtained:
c-Src SH2 = experiment: SH2 binding enrichment of the phosphorylated peptide, bacterial display (enrichment ratio); higher = better substrate or ligand; peptides without Tyr show the background
Grb2 SH2 = Grb2 SH2 (UniProt P62993); experiment: as above
SHP2-C SH2 = experiment: as above
Fer (mouse) = experiment: phosphorylation enrichment, bacterial display (enrichment ratio); higher = better substrate or ligand; peptides without Tyr show the background
FGFR1 = FGFR1 (UniProt P11362); experiment: as above
Sequence of FGFR1 (P11362 whole entry, looked up): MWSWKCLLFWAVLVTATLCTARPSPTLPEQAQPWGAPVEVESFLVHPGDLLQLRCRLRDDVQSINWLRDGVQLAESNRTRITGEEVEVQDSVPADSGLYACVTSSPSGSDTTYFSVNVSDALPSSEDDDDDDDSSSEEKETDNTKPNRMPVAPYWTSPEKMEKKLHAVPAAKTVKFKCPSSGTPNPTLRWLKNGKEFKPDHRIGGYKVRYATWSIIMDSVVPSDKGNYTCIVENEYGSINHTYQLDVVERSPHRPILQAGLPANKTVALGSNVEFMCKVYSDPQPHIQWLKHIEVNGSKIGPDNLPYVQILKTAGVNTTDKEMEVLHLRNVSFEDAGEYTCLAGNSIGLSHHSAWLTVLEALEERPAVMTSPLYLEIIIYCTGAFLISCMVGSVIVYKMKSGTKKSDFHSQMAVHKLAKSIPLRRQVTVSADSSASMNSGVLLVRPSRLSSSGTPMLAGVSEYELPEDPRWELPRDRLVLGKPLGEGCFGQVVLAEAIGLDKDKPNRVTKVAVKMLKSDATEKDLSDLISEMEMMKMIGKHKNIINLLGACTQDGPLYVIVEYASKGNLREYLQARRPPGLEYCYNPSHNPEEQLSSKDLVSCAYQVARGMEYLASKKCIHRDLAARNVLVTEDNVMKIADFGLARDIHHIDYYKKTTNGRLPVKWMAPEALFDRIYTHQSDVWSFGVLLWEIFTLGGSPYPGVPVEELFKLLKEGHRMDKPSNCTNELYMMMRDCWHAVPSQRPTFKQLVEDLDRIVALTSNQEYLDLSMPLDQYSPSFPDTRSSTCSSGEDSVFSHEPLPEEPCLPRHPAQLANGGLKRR

EPHB1 = EPHB1 (UniProt P54762); experiment: as above
Fes = Fes (UniProt P07332); experiment: as above
EPHB2 = EPHB2 (UniProt P29323); experiment: as above
Sequence of EPHB2 (P29323 whole entry, looked up): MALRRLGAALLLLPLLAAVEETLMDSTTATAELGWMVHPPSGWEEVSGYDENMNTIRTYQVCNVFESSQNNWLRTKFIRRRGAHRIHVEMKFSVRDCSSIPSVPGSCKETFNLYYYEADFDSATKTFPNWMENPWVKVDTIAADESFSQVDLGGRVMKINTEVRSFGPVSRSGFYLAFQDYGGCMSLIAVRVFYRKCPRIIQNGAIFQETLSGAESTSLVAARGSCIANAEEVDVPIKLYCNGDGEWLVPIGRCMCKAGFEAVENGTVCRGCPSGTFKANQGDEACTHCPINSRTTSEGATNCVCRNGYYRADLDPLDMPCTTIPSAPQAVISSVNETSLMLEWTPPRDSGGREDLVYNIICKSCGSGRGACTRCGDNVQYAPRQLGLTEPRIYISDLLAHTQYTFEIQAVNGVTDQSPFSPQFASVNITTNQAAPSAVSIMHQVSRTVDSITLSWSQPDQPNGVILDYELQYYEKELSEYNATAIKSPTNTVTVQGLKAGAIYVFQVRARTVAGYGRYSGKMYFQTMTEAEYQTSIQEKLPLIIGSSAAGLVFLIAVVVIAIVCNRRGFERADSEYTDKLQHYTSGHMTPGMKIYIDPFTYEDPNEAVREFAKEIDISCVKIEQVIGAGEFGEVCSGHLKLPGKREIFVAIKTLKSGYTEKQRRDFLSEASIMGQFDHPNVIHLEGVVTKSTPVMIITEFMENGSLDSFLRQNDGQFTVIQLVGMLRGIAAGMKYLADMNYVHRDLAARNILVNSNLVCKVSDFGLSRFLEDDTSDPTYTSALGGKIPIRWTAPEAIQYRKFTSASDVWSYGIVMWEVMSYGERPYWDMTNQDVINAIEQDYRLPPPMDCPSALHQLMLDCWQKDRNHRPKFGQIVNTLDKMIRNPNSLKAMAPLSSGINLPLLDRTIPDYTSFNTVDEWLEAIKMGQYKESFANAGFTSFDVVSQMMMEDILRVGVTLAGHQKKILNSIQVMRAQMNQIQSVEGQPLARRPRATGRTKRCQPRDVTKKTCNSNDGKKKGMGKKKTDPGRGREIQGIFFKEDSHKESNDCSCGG

Jak2 = Jak2 (UniProt O60674); experiment: as above
Sequence of Jak2 (O60674 whole entry, looked up): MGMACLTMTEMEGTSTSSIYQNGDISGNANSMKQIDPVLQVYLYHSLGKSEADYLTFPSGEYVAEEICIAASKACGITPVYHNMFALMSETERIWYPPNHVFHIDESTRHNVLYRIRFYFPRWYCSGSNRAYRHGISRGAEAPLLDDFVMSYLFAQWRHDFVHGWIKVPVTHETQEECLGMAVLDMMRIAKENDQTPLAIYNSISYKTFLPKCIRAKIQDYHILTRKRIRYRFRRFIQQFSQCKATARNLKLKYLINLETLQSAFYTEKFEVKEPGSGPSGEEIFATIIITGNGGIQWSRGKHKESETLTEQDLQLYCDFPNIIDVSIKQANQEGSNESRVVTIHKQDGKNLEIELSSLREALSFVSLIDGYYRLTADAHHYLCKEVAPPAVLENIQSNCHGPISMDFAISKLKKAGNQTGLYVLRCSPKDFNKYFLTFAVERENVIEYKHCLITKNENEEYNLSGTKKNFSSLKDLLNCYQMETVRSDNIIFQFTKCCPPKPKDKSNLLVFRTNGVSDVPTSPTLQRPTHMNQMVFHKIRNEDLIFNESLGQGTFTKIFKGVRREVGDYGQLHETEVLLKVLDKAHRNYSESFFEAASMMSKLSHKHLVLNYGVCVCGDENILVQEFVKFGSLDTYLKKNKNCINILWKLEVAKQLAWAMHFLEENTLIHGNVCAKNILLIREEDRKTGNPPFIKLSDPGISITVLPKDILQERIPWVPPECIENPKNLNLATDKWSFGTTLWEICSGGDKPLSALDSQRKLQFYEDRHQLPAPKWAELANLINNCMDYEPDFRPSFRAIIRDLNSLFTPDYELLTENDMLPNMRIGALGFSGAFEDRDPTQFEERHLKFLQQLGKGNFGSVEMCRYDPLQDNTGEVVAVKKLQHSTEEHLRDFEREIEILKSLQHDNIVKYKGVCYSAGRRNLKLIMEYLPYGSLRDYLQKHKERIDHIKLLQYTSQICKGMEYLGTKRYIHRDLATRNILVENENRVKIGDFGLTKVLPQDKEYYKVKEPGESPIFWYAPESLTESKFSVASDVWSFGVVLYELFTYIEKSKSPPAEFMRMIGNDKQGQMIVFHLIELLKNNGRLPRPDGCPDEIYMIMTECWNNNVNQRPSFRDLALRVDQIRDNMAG

FGFR3 = FGFR3 (UniProt P22607); experiment: as above
Sequence of FGFR3 (P22607 whole entry, looked up): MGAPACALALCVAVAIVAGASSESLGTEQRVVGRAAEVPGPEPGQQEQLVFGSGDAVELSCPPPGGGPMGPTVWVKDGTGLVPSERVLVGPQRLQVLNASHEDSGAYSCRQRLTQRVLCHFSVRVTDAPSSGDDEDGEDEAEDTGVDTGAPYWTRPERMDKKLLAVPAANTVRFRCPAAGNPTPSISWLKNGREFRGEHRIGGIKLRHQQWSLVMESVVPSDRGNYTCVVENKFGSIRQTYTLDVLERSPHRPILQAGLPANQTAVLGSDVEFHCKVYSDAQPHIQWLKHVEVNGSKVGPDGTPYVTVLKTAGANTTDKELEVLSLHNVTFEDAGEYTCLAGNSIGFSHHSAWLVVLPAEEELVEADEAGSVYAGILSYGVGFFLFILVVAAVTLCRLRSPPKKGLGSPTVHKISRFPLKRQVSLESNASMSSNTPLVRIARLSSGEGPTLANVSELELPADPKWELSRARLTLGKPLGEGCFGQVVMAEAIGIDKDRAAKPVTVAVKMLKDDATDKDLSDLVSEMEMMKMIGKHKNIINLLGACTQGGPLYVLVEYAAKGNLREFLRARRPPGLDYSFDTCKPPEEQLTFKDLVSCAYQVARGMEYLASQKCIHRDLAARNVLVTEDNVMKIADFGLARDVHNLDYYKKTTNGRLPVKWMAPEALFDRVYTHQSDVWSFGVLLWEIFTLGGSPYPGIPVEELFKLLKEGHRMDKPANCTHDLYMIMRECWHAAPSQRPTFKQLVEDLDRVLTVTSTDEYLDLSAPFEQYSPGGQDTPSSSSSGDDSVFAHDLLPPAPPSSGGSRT

c-Abl (mouse) = experiment: as above
AncSZ = experiment: as above
c-Src = experiment: as above
Hck = Hck (UniProt P08631); experiment: as above
MERTK = MERTK (UniProt Q12866); experiment: as above
Sequence of MERTK (Q12866 whole entry, looked up): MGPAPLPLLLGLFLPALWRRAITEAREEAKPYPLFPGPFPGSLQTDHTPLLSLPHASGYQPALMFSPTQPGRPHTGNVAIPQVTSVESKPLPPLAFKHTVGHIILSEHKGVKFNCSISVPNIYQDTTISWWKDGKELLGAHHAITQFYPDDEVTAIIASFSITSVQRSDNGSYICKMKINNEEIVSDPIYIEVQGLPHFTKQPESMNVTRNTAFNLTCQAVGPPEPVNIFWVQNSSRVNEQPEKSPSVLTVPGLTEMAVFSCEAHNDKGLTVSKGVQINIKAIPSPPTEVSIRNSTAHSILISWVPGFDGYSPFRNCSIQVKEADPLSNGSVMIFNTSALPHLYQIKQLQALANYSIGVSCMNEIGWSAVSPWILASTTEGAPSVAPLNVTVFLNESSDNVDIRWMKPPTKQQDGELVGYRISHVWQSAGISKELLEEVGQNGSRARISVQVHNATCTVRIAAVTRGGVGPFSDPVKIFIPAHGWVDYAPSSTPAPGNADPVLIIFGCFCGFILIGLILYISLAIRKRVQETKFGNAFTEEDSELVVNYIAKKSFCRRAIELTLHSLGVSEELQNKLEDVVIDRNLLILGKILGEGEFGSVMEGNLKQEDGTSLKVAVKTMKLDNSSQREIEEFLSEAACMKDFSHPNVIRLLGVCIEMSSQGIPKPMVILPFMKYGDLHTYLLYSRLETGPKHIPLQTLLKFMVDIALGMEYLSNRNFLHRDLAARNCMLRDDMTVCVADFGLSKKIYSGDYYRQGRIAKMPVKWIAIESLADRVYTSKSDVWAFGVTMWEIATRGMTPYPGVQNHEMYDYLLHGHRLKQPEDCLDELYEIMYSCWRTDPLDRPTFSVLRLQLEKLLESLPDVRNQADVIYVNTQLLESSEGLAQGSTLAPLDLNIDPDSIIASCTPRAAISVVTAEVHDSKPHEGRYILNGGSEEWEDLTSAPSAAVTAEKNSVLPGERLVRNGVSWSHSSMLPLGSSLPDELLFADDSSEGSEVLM

Fyn = Fyn (UniProt P06241); experiment: as above
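Throughout, for SH2 binding enrichment of the phosphorylated peptide, bacterial display: peptide library displayed on the E. coli surface as eCPX fusions, selected cells deep-sequenced, score is each peptide's frequency after selection divided by its frequency in the input.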
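Throughout, for phosphorylation enrichment, bacterial display: 11-residue human phosphosite peptides and single-mutation variants displayed on the E. coli surface, counted by deep sequencing, each peptide's frequency after selection divided by its frequency in the unselected input library; frequency after pTyr selection over input frequency; kinase dosed for 20-30% of maximal phosphorylation in three min.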

Sequence of Grb2 SH2 (P62993 whole entry, looked up): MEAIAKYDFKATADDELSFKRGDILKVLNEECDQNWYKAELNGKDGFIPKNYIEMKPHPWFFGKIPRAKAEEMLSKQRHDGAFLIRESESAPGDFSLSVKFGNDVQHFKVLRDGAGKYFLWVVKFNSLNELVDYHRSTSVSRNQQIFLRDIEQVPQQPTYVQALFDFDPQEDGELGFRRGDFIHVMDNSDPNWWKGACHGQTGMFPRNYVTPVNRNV

Sequence | SH2 binding enrichment (c-Src SH2) | SH2 binding enrichment (Grb2 SH2) | SH2 binding enrichment (SHP2-C SH2) | phosphorylation enrichment (Fer (mouse)) | phosphorylation enrichment (FGFR1) | phosphorylation enrichment (EPHB1) | phosphorylation enrichment (Fes) | phosphorylation enrichment (EPHB2) | phosphorylation enrichment (Jak2) | phosphorylation enrichment (FGFR3) | phosphorylation enrichment (c-Abl (mouse)) | phosphorylation enrichment (AncSZ) | phosphorylation enrichment (c-Src) | phosphorylation enrichment (Hck) | phosphorylation enrichment (MERTK) | phosphorylation enrichment (Fyn)
KQELVYTNKKL [OPTN_Y356] | 0.4 | 0.781 | 0.803 | 0.571 | 0.47 | 0.496 | 0.675 | 0.561 | 0.791 | 0.474 | 0.759 | 0.69 | 0.836 | 0.734 | 0.594 | 0.441
VTRKEYFIFLE [CAMKV_Y95] | 1.03 | 1.55 | 1.43 | 0.528 | 0.786 | 0.696 | 1.06 | 0.554 | 1.01 | 0.838 | 0.792 | 1.11 | 0.695 | 0.43 | 0.401 | 0.481
CTTIHYNFMCF [TP53_Y234_N239Y_YF] | 1.58 | 1.95 | 2.01 | 0.671 | 0.621 | 0.608 | 1.12 | 0.522 | 0.913 | 0.738 | 0.683 | 1.04 | 0.474 | 0.451 | 0.409 | 0.414
TGHKGYVAFLE [CARD9_Y76] | 1.93 | 0.739 | 0.81 | 0.403 | 0.414 | 0.392 | 0.666 | 0.466 | 0.635 | 0.507 | 0.617 | 0.674 | 0.394 | 0.494 | 0.396 | 0.358
GEIQEYGAPSD [ABCC1_Y1508] | 0.507 | 0.745 | 0.648 | 0.481 | 0.523 | 0.493 | 1.05 | 0.544 | 0.891 | 0.662 | 0.757 | 1.07 | 0.438 | 0.505 | 0.476 | 0.506
GVASDYKCIDP [VPS13B_Y1991] | 0.65 | 0.888 | 0.524 | 0.587 | 0.724 | 0.739 | 1.01 | 0.589 | 0.703 | 0.827 | 0.496 | 1.08 | 0.427 | 0.747 | 0.365 | 0.548
SYCYRYRCAAQ [SUMF1_Y344_R349Q] | 1.5 | 1.42 | 1.43 | 0.346 | 0.499 | 0.382 | 0.599 | 0.424 | 0.599 | 0.464 | 0.471 | 0.768 | 0.399 | 0.5 | 0.515 | 0.419
STEPQYQPGEN [SRC_Y530] | 0.558 | 0.814 | 0.712 | 0.392 | 0.478 | 0.516 | 0.817 | 0.566 | 0.681 | 0.476 | 0.564 | 0.825 | 0.38 | 0.499 | 0.356 | 0.383
TYGQVYKGRHV [TNIK_Y40] | 0.676 | 0.974 | 0.964 | 0.528 | 0.493 | 0.507 | 0.488 | 0.506 | 0.482 | 0.533 | 0.711 | 0.484 | 6.62 | 6.44 | 0.942 | 8.37
ETEMLYGSARR [PRC1_Y464_P468R] | 0.495 | 0.853 | 0.871 | 1.27 | 0.429 | 0.416 | 0.78 | 0.451 | 0.521 | 0.601 | 0.638 | 0.886 | 2.81 | 4.55 | 0.38 | 2.66
QYNPEYVQQAS [LRRC7_Y1058_H1054Y] | 0.431 | 1.06 | 1.47 | 0.939 | 0.854 | 0.687 | 1.28 | 0.802 | 0.995 | 1.05 | 1 | 1.16 | 0.508 | 0.831 | 0.635 | 0.707
LLVVLYKFRCF [PSEN1_Y154_Y159F_YF] | 1.85 | 1.98 | 1.92 | 0.718 | 0.568 | 0.685 | 1.97 | 0.773 | 1.85 | 1.56 | 1.77 | 1.39 | 0.937 | 0.622 | 1.03 | 0.51
ALAAPYVLFPG [CEFIP_Y1332_YF] | 3.49 | 0.839 | 1.21 | 0.543 | 3.79 | 0.581 | 0.726 | 0.452 | 1.21 | 2.44 | 0.598 | 0.775 | 4.54 | 0.641 | 1.29 | 0.739
SIKDKYVTVLF [KCNH2_Y611_A614V_YF] | 0.669 | 1.04 | 10.8 | 0.392 | 0.482 | 0.481 | 0.91 | 0.48 | 0.743 | 0.646 | 0.549 | 0.763 | 0.361 | 0.546 | 0.375 | 0.442
TLEKFYFAFPG [SLC1A1_Y51] | 0.589 | 1 | 0.92 | 0.496 | 8.55 | 1.98 | 1.18 | 2.85 | 3.54 | 6.62 | 7.49 | 1.53 | 3.75 | 1.62 | 7.49 | 1.9
